In US20240002541A1 (Johns Hopkins, published 2024):

Key:
TRBV12-3 on Jurkat cells [1] = target: T1, TRBV12-3 on Jurkat cells (human, UniProt P01733 22-115); assay: cell-based or functional assay
T1 sequence (TCR beta, looked up): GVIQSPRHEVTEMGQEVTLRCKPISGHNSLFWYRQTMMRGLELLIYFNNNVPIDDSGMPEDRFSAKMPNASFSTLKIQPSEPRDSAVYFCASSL

TRBV12-3 on Jurkat cells [2] = target: T1, TRBV12-3 on Jurkat cells; assay: cell-based or functional assay; remark: listed apart in the source
[3] = target: T2, TRBV5-5 on human T cells and HPB-ALL cells (human, UniProt A0A597 22-114); assay: cell-based or functional assay
T2 sequence (TCR beta, looked up): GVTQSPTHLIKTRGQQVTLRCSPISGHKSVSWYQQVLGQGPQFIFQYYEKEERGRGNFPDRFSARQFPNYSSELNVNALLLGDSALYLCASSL

[4] = target: T2, TRBV5-5 on human T cells and HPB-ALL …; assay: cell-based or functional assay; remark: listed apart in the source
TRBV5-5 = target: T3, TRBV5-5 (UniProt A0A597 22-114, limits assumed); assay: not stated (column 'Affinity' of Table 1)
T3 construct: The antigen construct is not described; also called T cell receptor β chain variable 5-5
T3 sequence (TCR beta, looked up): T2 sequence (TCR beta, looked up)

TRBV12 = target: T4, TRBV12; assay: not stated (column 'Affinity' of Table 1)
T4 chain: T1 sequence (TCR beta, looked up)

TRBC1 = target: T5, TRBC1 (UniProt P01850 1-130, limits assumed); assay: not stated (column 'Affinity' of Table 1)
T5 construct: The antigen construct is not described; also called T cell receptor β chain constant 1; Cβ1 TCR

CD19 = target: T6, CD19 (UniProt P15391 20-291, limits assumed); assay: not stated (column 'Affinity' of Table 1)
T6 construct: The antigen construct is not described
T6 sequence (looked up): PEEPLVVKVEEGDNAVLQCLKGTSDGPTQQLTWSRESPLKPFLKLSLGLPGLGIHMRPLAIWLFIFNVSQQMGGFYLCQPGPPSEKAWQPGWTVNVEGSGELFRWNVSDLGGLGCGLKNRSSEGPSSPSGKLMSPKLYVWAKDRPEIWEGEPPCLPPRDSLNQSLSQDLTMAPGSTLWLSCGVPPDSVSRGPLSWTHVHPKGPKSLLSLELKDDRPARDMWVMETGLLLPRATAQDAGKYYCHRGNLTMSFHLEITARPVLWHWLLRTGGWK

CD3 = target: T7, CD3 (UniProt P07766 23-126); assay: not stated (column 'Affinity' of Table 1)
T7 construct: The antigen construct is not described; also called cluster of differentiation 3; CD3ε subunit
T7 sequence (P07766 23-126): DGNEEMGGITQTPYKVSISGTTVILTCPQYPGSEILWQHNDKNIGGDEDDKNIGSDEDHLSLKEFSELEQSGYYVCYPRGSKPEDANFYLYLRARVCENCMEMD

T5 sequence (P01850 1-130 limits assumed): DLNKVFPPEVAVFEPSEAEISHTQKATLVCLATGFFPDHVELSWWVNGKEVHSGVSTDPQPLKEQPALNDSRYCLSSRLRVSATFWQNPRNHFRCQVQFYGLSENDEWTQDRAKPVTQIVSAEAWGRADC

B1: anti-TRBV12 BsAb (α-V12) (bispecific antibody)
chain: ENVLTQSPAIMSASLGEKVTMSCRASSSVNYIYWYQQKSDASPKLWIYYTSNLAPGVPTRFSGSGSGNSYSLTISSMEGEDAATYYCQQFTSSPFTFGQGTKLEIKGGGGSEVQLVESGGGLVQPGGSLRLSCAASGYSFTGYTMNWVRQAPGKGLEWVALINPYKGVSTYNQKFKDRFTISVDKSKNTAYLQMNSLRAEDTAVYYCARSGYYGDSDWYFDVWGQGTLVTVSSGGGGSGGGGSGGGGSDIQMTQSPSSLSASVGDRVTITCRASQDIRNYLNWYQQKPGKAPKLLIYYTSRLESGVPSRFSGSGSGTDYTLTISSLQPEDFATYYCQQGNTLPWTFGQGTKVEIKGGGGSDVQLVESGGGLVQPGGSRKLSCAASGFTFSNFGMHWVRQAPDKGLEWVAYISSGSSTIYYADTLKGRFTISRDNPKNTLFLQMTSLRSEDTAMYYCARRGEGAMDYWGQGTSVTVSSHHHHHH
EC50 of GM-CSF release (Luminex), Jurkat WT + T cells, 17 hours (TRBV12-3 on Jurkat cells [1]): 12.1 pM | EC50 of IFNγ release (Luminex), Jurkat WT + T cells, 17 hours (TRBV12-3 on Jurkat cells [1]): 23.5 pM | EC50 of IL2 release (Luminex), Jurkat WT + T cells, 17 hours (TRBV12-3 on Jurkat cells [1]): 20.5 pM | EC50 of IL5 release (Luminex), Jurkat WT + T cells, 17 hours (TRBV12-3 on Jurkat cells [1]): 12.4 pM | EC50 of TNFα release (Luminex), Jurkat WT + T cells, 17 hours (TRBV12-3 on Jurkat cells [1]): 13.8 pM | EC50 of the loss of Jurkat viability (luminescence), 5x10^4 Jurkat cells with 5x10^4 normal human T cells, 17 hours (TRBV12-3 on Jurkat cells [2]): 0.78 pM

B2: anti-TRBV5-5 BsAb (α-V5) (bispecific antibody)
chain: DIQMTQTTSSLSASLGDRVTITCSASQGISNYLNWYQQKPDGTVKLLIYYTSSLHSGVPSRFSGSGSGTDYSLTISNLEPEDIATYYCQQYSKLPRTFGGGTKVEIKGGGGSEVQLVESGGGLVQPGGSLRLSCAASGYSFTGYTMNWVRQAPGKGLEWVALINPYKGVSTYNQKFKDRFTISVDKSKNTAYLQMNSLRAEDTAVYYCARSGYYGDSDWYFDVWGQGTLVTVSSGGGGSGGGGSGGGGSDIQMTQSPSSLSASVGDRVTITCRASQDIRNYLNWYQQKPGKAPKLLIYYTSRLESGVPSRFSGSGSGTDYTLTISSLQPEDFATYYCQQGNTLPWTFGQGTKVEIKGGGGSQVQLKESGPGLVAPSQSLSITCTVSGFSLTAYGVNWVRQPPGKGLEWLGMIWGDGNTDYNSALKSRLSISKDNSKSQVFLKMNSLQTDDTARYYCARDRVTATLYAMDYWGQGTSVTVSSHHHHHH
EC50 of GM-CSF release (Luminex), HPB-ALL WT + T cells, 17 hours [3]: 42.3 pM | EC50 of IFNγ release (Luminex), HPB-ALL WT + T cells, 17 hours [3]: 31.1 pM | EC50 of IL2 release (Luminex), HPB-ALL WT + T cells, 17 hours [3]: 94.5 pM | EC50 of IL5 release (Luminex), HPB-ALL WT + T cells, 17 hours [3]: 54.4 pM | EC50 of TNFα release (Luminex), HPB-ALL WT + T cells, 17 hours [3]: 166 pM | EC50 of the loss of HPB-ALL viability (luminescence), 5x10^4 HPB-ALL cells with 5x10^4 normal human T cells, 17 hours [4]: 2.09 pM

B3: α-TRBV5-5 scFv (clone TM23) (scFv, V domains shown)
VH: QVQLKESGPGLVAPSQSLSITCTVSGFSLTAYGVNWVRQPPGKGLEWLGMIWGDGNTDYNSALKSRLSISKDNSKSQVFLKMNSLQTDDTARYYCARDRVTATLYAMDYWGQGTSVTVSS
VL: DIQMTQTTSSLSASLGDRVTITCSASQGISNYLNWYQQKPDGTVKLLIYYTSSLHSGVPSRFSGSGSGTDYSLTISNLEPEDIATYYCQQYSKLPRTFGGGTKVEIK
notes: also called anti-TRBV5-5 scFv
Kd (TRBV5-5): 25200 pM

B4: α-TRBV12 scFv (clone 16G8) (scFv, V domains shown)
VH: DVQLVESGGGLVQPGGSRKLSCAASGFTFSNFGMHWVRQAPDKGLEWVAYISSGSSTIYYADTLKGRFTISRDNPKNTLFLQMTSLRSEDTAMYYCARRGEGAMDYWGQGTSVTVSS
VL: ENVLTQSPAIMSASLGEKVTMSCRASSSVNYIYWYQQKSDASPKLWIYYTSNLAPGVPTRFSGSGSGNSYSLTISSMEGEDAATYYCQQFTSSPFTFGQGTKLEIK
notes: also called anti-TRBV12 scFv
Kd (TRBV12): 2600 pM

B5: α-TRBC1 scFv (clone Jovi-1) (scFv, V domains shown)
VH: EVRLQQSGPDLIKPGASVKMSCKASGYTFTGYVMHWVKQRPGQGLEWIGFINPYNDDIQSNERFRGKATLTSDKSSTTAYMELSSLTSEDSAVYYCARGAGYNFDGAYRFFDFWGQGTTLTVSS
VL: DVVMTQSPLSLPVSLGDQASISCRSSQRLVHSNGNTYLHWYLQKPGQSPKLLIYRVSNRFPGVPDRFSGSGSGTDFTLKISRVEAEDLGIYFCSQSTHVPYTFGGGTKLEIKR
notes: also called anti-TRBC1 scFv
Kd (TRBC1): 400 pM

B6: α-CD19 scFv (clone HD37) (scFv, V domains shown)
VH: QVQLQQSGAELVRPGSSVKISCKASGYAFSSYWMNWVKQRPGQGLEWIGQIWPGDGDTNYNGKFKGKATLTADESSSTAYMQLSSLASEDSAVYFCARRETTTVGRYYYAMDYWGQGTTVTVSS
VL: DIQLTQSPASLAVSLGQRATISCKASQSVDYDGDSYLNWYQQIPGQPPKLLIYDASNLVSGIPPRFSGSGSGTDFTLNIHPVEKVDAATYHCQQSTEDPWTFGGGTKLEIK
notes: also called anti-CD19 scFv
Kd (CD19): 300 pM

B7: α-CD3 scFv (clone UCHT1.v9) (scFv, V domains shown)
VH: EVQLVESGGGLVQPGGSLRLSCAASGYSFTGYTMNWVRQAPGKGLEWVALINPYKGVSTYNQKFKDRFTISVDKSKNTAYLQMNSLRAEDTAVYYCARSGYYGDSDWYFDVWGQGTLVTVSS
VL: DIQMTQSPSSLSASVGDRVTITCRASQDIRNYLNWYQQKPGKAPKLLIYYTSRLESGVPSRFSGSGSGTDYTLTISSLQPEDFATYYCQQGNTLPWTFGQGTKVEIK
notes: also called anti-CD3 scFv
Kd (CD3): 4700 pM
